Our source for the % Recovery of TEM-1 QCs spiked with MORAb-004 and Geometric mean of resulting FACS plot values is patent US20150337051A1 (MORPHOTEK, published 2015).

Assay [1] concerns the target T1, recombinant CHO TEM-1 Fc fusion protein (UniProt Q9HCU0).
T1 sequence (looked up): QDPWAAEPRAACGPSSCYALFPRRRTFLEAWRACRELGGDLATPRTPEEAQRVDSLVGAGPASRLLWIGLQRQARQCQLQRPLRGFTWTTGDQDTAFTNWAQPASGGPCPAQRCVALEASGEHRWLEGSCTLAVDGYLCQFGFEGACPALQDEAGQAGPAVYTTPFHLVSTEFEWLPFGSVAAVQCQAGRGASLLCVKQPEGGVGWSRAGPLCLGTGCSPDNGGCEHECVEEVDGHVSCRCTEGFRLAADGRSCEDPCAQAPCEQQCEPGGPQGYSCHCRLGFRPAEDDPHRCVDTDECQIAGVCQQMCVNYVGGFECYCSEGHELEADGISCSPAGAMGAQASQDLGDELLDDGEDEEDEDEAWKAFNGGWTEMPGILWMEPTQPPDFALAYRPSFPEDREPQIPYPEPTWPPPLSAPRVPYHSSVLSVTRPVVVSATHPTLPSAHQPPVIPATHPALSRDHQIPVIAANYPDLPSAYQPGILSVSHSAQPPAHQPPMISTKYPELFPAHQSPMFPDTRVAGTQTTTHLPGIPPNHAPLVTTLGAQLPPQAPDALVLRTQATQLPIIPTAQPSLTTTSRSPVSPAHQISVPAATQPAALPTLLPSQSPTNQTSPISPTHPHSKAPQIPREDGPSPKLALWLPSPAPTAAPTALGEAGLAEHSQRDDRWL
In words: ECL sandwich, competition: biotin-9G5 capture, sulfo-TAG-15F8 detection; MORAb-004 spike 3.125 µg/mL, TEM-1-Fc QC 50 ng/mL; recovery at 0 µg/mL MORAb-004: 104.

The target in assay [2] is T1, recombinant CHO TEM-1 Fc fusion protein. Nature of the assay: ECL sandwich, competition: biotin-9G5 capture, sulfo-TAG-15F8 detection; MORAb-004 spike 50 µg/mL, TEM-1-Fc QC 10 ng/mL; recovery at 0 µg/mL MORAb-004: 105.
The target is the same in assay [3]. Nature of the assay: ECL sandwich, competition: biotin-9G5 capture, sulfo-TAG-15F8 detection; MORAb-004 spike 1.5625 µg/mL, TEM-1-Fc QC 50 ng/mL; recovery at 0 µg/mL MORAb-004: 104.
The target is the same in assay [4]. In words: ECL sandwich, competition: biotin-9G5 capture, sulfo-TAG-15F8 detection; MORAb-004 spike 25 µg/mL, TEM-1-Fc QC 0.08 ng/mL; recovery at 0 µg/mL MORAb-004: 114.
In assay [5] the target is T2, TEM-1 in a native state on aortic smooth muscle cells (AoSMC) (UniProt Q9HCU0).
T2 sequence (looked up): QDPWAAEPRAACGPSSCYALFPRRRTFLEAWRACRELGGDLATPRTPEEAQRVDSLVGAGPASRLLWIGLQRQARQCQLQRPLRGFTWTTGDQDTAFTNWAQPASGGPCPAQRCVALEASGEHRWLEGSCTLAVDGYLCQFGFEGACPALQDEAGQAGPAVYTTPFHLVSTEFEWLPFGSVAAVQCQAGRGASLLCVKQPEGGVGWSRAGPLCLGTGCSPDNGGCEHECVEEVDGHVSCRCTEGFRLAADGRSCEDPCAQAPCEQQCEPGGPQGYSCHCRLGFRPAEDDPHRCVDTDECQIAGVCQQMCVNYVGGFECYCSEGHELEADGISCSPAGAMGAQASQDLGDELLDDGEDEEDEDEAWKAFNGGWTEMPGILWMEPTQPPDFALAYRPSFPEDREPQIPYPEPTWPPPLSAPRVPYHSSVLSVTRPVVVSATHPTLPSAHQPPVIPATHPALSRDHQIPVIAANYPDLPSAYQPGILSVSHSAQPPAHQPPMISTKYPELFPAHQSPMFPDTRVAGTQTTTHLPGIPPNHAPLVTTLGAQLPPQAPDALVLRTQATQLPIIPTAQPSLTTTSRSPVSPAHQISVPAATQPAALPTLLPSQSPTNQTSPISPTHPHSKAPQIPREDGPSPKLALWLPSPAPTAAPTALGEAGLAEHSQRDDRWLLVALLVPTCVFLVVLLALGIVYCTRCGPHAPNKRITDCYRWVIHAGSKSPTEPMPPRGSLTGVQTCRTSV
Nature of the assay: flow cytometry on AoSMC, primary antibody then FITC secondary; cells only 2.5, secondary only 3.9. A general note: A flow cytometer gives signals particle by particle.

Assay [6] concerns the target T1, recombinant CHO TEM-1 Fc fusion protein. In words: ECL sandwich, competition: biotin-9G5 capture, sulfo-TAG-15F8 detection; MORAb-004 spike 1.5625 µg/mL, TEM-1-Fc QC 10 ng/mL; recovery at 0 µg/mL MORAb-004: 105.
The target is the same in assay [7]. Nature of the assay: ECL sandwich, competition: biotin-9G5 capture, sulfo-TAG-15F8 detection; MORAb-004 spike 12.5 µg/mL, TEM-1-Fc QC 0.4 ng/mL; recovery at 0 µg/mL MORAb-004: 109.
The target is the same in assay [8]. Nature of the assay: ECL sandwich, competition: biotin-9G5 capture, sulfo-TAG-15F8 detection; MORAb-004 spike 3.125 µg/mL, TEM-1-Fc QC 0.4 ng/mL; recovery at 0 µg/mL MORAb-004: 109.
The target is the same in assay [9]. Nature of the assay: ECL sandwich, competition: biotin-9G5 capture, sulfo-TAG-15F8 detection; MORAb-004 spike 6.25 µg/mL, TEM-1-Fc QC 10 ng/mL; recovery at 0 µg/mL MORAb-004: 105.

B1: MORAb-004 (antibody, INN chains, looked up, V domains shown)
VH: QVQLQESGPGLVRPSQTLSLTCTASGYTFTDYVIHWVKQPPGRGLEWIGYINPYDDDTTYNQKFKGRVTMLVDTSSNTAYLRLSSVTAEDTAVYYCARRGNSYDGYFDYSMDYWGSGTPVTVSS
VL: DIQMTQSPSSLSASVGDRVTITCRASQNVGTAVAWLQQTPGKAPKLLIYSASNRYTGVPSRFSGSGSGTDYTFTISSLQPEDIATYYCQQYTNYPMYTFGQGTKVQIK
On to B1, for which the % Recovery of TEM-1 QCs spiked with MORAb-004 in assay [1] worked out at 94.5%; in assay [2] it was 87%; in assay [3], 98.9%; in [4] it was 96%; in [6], 97.7%; in assay [7], 96.5%. Besides, the % Recovery of TEM-1 QCs spiked with MORAb-004 in assay [8] was found to be 101%; in assay [9], 94.4%. In [5], this molecule yielded a Geometric mean of resulting FACS plot of 103.
